Measurements as given in patent US20110300138A1 (published 2011).

B1: K1-18 IgG (antibody, V domains shown)
VH: EVQLVQSGAEVKKPGESLKISCKGSGYSFTNYWIGWVRQMPGKGLEWMGIIYPYDSDTRYSPSFEGQVTISADKSIRTAYLHWSSLKASDTAMYYCVRPRDGSYPYDAFDIWGQGTMVTVSS
VL: EIVLTQSPGTLSLSPGERATLSCRASQSVSNNYLAWYQQKPGQAPRLLIYGASSRATGIPDRFSGSGSGTDFTLTISRLEPEDFAVYYCQHCGSSLRAFGQGTKVEIKR
B2: K1-18 Fab (Fab, V domains shown)
VH: B1 VH
VL: B1 VL
B3: K1-70 IgG (antibody, V domains shown)
VH: EVQLVQSGAEVKKPGQSLKISCKASGYSLTDNWIGWVRQKPGKGLEWMGIIYPGDSDTRYSPSFQGQVTISADKSINTAYLQWSSLKASDTAIYYCVGLDWNYNPLRYWGPGTLVTVSS
VL: QSVLTQPPSVSAAPGQKVTISCSGSSSDIGSNYVSWYQQFPGTAPKLLIYDNNKRPSAIPDRFSGSKSGTSATLGITGLQTGDEADYYCGTWDSRLGIAVFGGGTQLTVLG
B4: K1-70 Fab (Fab, V domains shown)
VH: B3 VH
VL: B3 VL

The binders below were run against T1, human TSH receptor (full length), coated on tubes (human, UniProt P16473 22-764) (assay: competition with 125I-K1-18 IgG on TSHR coated tubes; 1 µg/mL, diluted in assay buffer).
T1 construct: TSHR coated tubes as described in WO2004/050708A2; Exact preparation on the tubes is not detailed here; also called thyroid stimulating hormone receptor
Procedure: (§1) Binding inhibition assays were carried out using TSHR coated tubes as described in WO2004/050708A2. […] After aspiration, the tubes were washed and 100 μL of ¹²⁵I-labelled protein (5×10⁴ cpm) added and incubated for 1 hour at room temperature with shaking. The tubes were then aspirated, washed and counted in a gamma counter. Inhibition of labelled protein binding was calculated as 100×[1−(cpm bound in the presence of test material/cpm bound in the presence of control material)].

| Inhibition of binding (%) | Binder |
| --- | --- |
| 92.8% | B1 |
| 77.5% | B2 |
| 92% | B3 |
| 91% | B4 |

What follows are binders tested against T1, human TSH receptor (full length), … (assay: competition with 125I-K1-18 IgG on TSHR coated tubes; 3 µg/mL, diluted in assay buffer).
Procedure: as §1

| Inhibition of binding (%) | Binder |
| --- | --- |
| 93% | B1 |
| 81.9% | B2 |
| 92.9% | B3 |
| 91.1% | B4 |

These binders were tested against T1, human TSH receptor (full length), … (assay: competition with 125I-K1-18 IgG on TSHR coated tubes; 10 µg/mL, diluted in assay buffer).
Procedure: as §1

| Inhibition of binding (%) | Binder |
| --- | --- |
| 92.5% | B1 |
| 81.8% | B2 |
| 91.9% | B3 |
| 92.4% | B4 |

What follows are binders tested against T1, human TSH receptor (full length), … (assay: competition with 125I-K1-18 IgG on TSHR coated tubes; 30 µg/mL, diluted in assay buffer).
Procedure: as §1

| Inhibition of binding (%) | Binder |
| --- | --- |
| 93.8% | B1 |
| 83% | B2 |
| 93.1% | B3 |
| 92.2% | B4 |

What follows are binders tested against T1, human TSH receptor (full length), … (assay: competition with 125I-K1-18 IgG on TSHR coated tubes; 0.1 µg/mL, diluted in assay buffer).
Procedure: as §1

| Inhibition of binding (%) | Binder |
| --- | --- |
| 78.9% | B1 |
| 56.7% | B2 |
| 89.2% | B3 |
| 87.6% | B4 |

The binders below were run against T1, human TSH receptor (full length), … (assay: competition with 125I-K1-18 IgG on TSHR coated tubes; 0.3 µg/mL, diluted in assay buffer).
Procedure: as §1

| Inhibition of binding (%) | Binder |
| --- | --- |
| 90.9% | B1 |
| 71.1% | B2 |
| 91.5% | B3 |
| 89.6% | B4 |

The binders below were run against T1, human TSH receptor (full length), … (assay: competition with 125I-K1-18 IgG on TSHR coated tubes; 1 µg/mL, diluted in HBD serum pool).
Procedure: as §1

| Inhibition of binding (%) | Binder |
| --- | --- |
| 91.1% | B1 |
| 80.2% | B2 |
| 92.9% | B3 |
| 92.1% | B4 |

Each binder was assayed against T1, human TSH receptor (full length), … (assay: competition with 125I-K1-18 IgG on TSHR coated tubes; 100 µg/mL, diluted in assay buffer).
Procedure: as §1

| Inhibition of binding (%) | Binder |
| --- | --- |
| 94.5% | B1 |
| 86.2% | B2 |
| 94.5% | B3 |
| 93.3% | B4 |

What follows are binders tested against T1, human TSH receptor (full length), … (assay: competition with 125I-K1-18 IgG on TSHR coated tubes; 3 µg/mL, diluted in HBD serum pool).
Procedure: as §1

| Inhibition of binding (%) | Binder |
| --- | --- |
| 94% | B1 |
| 83.4% | B2 |
| 94.1% | B3 |
| 92.8% | B4 |

What follows are binders tested against T1, human TSH receptor (full length), … (assay: competition with 125I-K1-18 IgG on TSHR coated tubes; 0.01 µg/mL, diluted in assay buffer).
Procedure: as §1

| Inhibition of binding (%) | Binder |
| --- | --- |
| 14.9% | B1 |
| 8.8% | B2 |
| 6.8% | B3 |
| 25.6% | B4 |

The binders below were run against T1, human TSH receptor (full length), … (assay: competition with 125I-K1-18 IgG on TSHR coated tubes; 0.03 µg/mL, diluted in assay buffer).
Procedure: as §1

| Inhibition of binding (%) | Binder |
| --- | --- |
| 39.3% | B1 |
| 24.8% | B2 |
| 45.6% | B3 |
| 68.8% | B4 |

Each binder was assayed against T1, human TSH receptor (full length), … (assay: competition with 125I-K1-18 IgG on TSHR coated tubes; 10 µg/mL, diluted in HBD serum pool).
Procedure: as §1

| Inhibition of binding (%) | Binder |
| --- | --- |
| 94% | B1 |
| 83% | B2 |
| 95.1% | B3 |
| 92.6% | B4 |

These binders were tested against T1, human TSH receptor (full length), … (assay: competition with 125I-K1-18 IgG on TSHR coated tubes; 30 µg/mL, diluted in HBD serum pool).
Procedure: as §1

| Inhibition of binding (%) | Binder |
| --- | --- |
| 95.6% | B1 |
| 85% | B2 |
| 93.9% | B3 |
| 91.8% | B4 |

These binders were tested against T1, human TSH receptor (full length), … (assay: competition with 125I-K1-18 IgG on TSHR coated tubes; 0.001 µg/mL, diluted in assay buffer).
Procedure: as §1

| Inhibition of binding (%) | Binder |
| --- | --- |
| 6.9% | B1 |
| -2.6% | B2 |
| -1.7% | B3 |
| -3.9% | B4 |

Each binder was assayed against T1, human TSH receptor (full length), … (assay: competition with 125I-K1-18 IgG on TSHR coated tubes; 0.003 µg/mL, diluted in assay buffer).
Procedure: as §1

| Inhibition of binding (%) | Binder |
| --- | --- |
| 2.9% | B1 |
| 0.8% | B2 |
| 0.1% | B3 |
| 4.1% | B4 |

The binders below were run against T1, human TSH receptor (full length), … (assay: competition with 125I-K1-18 IgG on TSHR coated tubes; 0.1 µg/mL, diluted in HBD serum pool).
Procedure: as §1

| Inhibition of binding (%) | Binder |
| --- | --- |
| 49.4% | B1 |
| 39% | B2 |
| 55.6% | B3 |
| 75.2% | B4 |

These binders were tested against T1, human TSH receptor (full length), … (assay: competition with 125I-K1-18 IgG on TSHR coated tubes; 0.3 µg/mL, diluted in HBD serum pool).
Procedure: as §1

| Inhibition of binding (%) | Binder |
| --- | --- |
| 78.3% | B1 |
| 65.5% | B2 |
| 82.2% | B3 |
| 88.1% | B4 |

The binders below were run against T1, human TSH receptor (full length), … (assay: competition with 125I-K1-18 IgG on TSHR coated tubes; 100 µg/mL, diluted in HBD serum pool).
Procedure: as §1

| Inhibition of binding (%) | Binder |
| --- | --- |
| 96.1% | B1 |
| 84.8% | B2 |
| 95.3% | B3 |
| 92.5% | B4 |

Each binder was assayed against T1, human TSH receptor (full length), … (assay: competition with 125I-K1-18 IgG on TSHR coated tubes; 0.01 µg/mL, diluted in HBD serum pool).
Procedure: as §1

| Inhibition of binding (%) | Binder |
| --- | --- |
| 5.8% | B1 |
| 1.8% | B2 |
| 6.1% | B3 |
| 16.2% | B4 |

What follows are binders tested against T1, human TSH receptor (full length), … (assay: competition with 125I-K1-18 IgG on TSHR coated tubes; 0.03 µg/mL, diluted in HBD serum pool).
Procedure: as §1

| Inhibition of binding (%) | Binder |
| --- | --- |
| 15.1% | B1 |
| 10.3% | B2 |
| 17.8% | B3 |
| 35% | B4 |

The binders below were run against T1, human TSH receptor (full length), … (assay: competition with 125I-K1-18 IgG on TSHR coated tubes; 0.001 µg/mL, diluted in HBD serum pool).
Procedure: as §1

| Inhibition of binding (%) | Binder |
| --- | --- |
| 2.7% | B1 |
| -1% | B2 |
| 0% | B3 |
| -3.2% | B4 |

These binders were tested against T1, human TSH receptor (full length), … (assay: competition with 125I-K1-18 IgG on TSHR coated tubes; 0.003 µg/mL, diluted in HBD serum pool).
Procedure: as §1

| Inhibition of binding (%) | Binder |
| --- | --- |
| -0.3% | B1 |
| 1% | B2 |
| 2.1% | B3 |
| 3.7% | B4 |
